Several values for one entry are separate records, joined by “and”; a condition that tells them apart may be missing. Identical values can stand only once.
B1: IgG1-PD1 (antibody)
heavy: QVQLVESGGGLVQPGTSLRLSCSVSGFSLYSYNMGWVRQAPGKGLEYIGIISGGTIGHYASWAKGRFTISRDTSKTTLYLQMNSLTTEDTATYFCARAFYDDYDYNVWGPGTLVTVSSASTKGPSVFPLAPSSKSTSGGTAALGCLVKDYFPEPVTVSWNSGALTSGVHTFPAVLQSSGLYSLSSVVTVPSSSLGTQTYICNVNHKPSNTKVDKRVEPKSCDKTHTCPPCPAPEFERGPSVFLFPPKPKDTLMISRTPEVTCVVVDVSHEDPEVKFNWYVDGVEVHNAKTKPREEQYNSTYRVVSVLTVLHQDWLNGKEYKCKVSNKALPAPIEKTISKAKGQPREPQVYTLPPSREEMTKNQVSLTCLVKGFYPSDIAVEWESNGQPENNYKTTPPVLDSDGSFFLYSKLTVDKSRWQQGNVFSCSVMHEALHNHYTQKSLSLSPG
light: AIQLTQSPSSLSASVGGTVTITCQSSQSVYGNNQLSWYQQKPGQPPKLLIYQASKLETGVPSRFRGSGSGTQFTLTISSLQSEDFATYYCAGGYSSSSDTTFGGGTEVVVKRTVAAPSVFIFPPSDEQLKSGTASVVCLLNNFYPREAKVQWKVDNALQSGNSQESVTEQDSKDSTYSLSSTLTLSKADYEKHKVYACEVTHQGLSSPVTKSFNRGEC
notes: also called IgG1-PDI; copies: 2 + 2
B2: biotinylated recombinant human PD-L2 (ligand, UniProt Q9BQ51 20-219, looked up)
chain: LFTVTVPKELYIIEHGSNVTLECNFDTGSHVNLGAITASLQKVENDTSPHRERATLLEEQLPLGKASFHIPQVQVRDEGQYQCIIIYGVAWDYKYLTLKVKASYRKINTHILKVPETDEVELTCQATGYPLAEVSWPNVSVPANTSHSRTPEGLYQVTSVLRLKPPPGRNFSCVFWNTHVRELTLASIDLQSQMEPRTHP
modifications: biotinylated
notes: Bought reagent; also called programmed cell death 1 ligand 2

Experiments:
[1] = target: complement protein C1q (from human serum) (human, UniProt P02745 23-245; P02746 28-253; P02747 29-245); test: flow cytometry: C1q from human serum on activated human CD8+ T cells pre-incubated with antibody, FITC anti-C1q
Chain of complement protein C1q (from human serum) (P02745 23-245, chain 1 of 3): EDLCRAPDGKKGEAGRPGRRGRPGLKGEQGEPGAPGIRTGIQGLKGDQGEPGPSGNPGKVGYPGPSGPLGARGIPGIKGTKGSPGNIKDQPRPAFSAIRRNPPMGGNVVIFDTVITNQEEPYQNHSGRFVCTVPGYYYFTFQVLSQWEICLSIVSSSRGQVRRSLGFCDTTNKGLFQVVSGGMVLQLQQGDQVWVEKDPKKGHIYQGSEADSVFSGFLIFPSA
Chain of complement protein C1q (from human serum) (P02746 28-253, chain 2 of 3): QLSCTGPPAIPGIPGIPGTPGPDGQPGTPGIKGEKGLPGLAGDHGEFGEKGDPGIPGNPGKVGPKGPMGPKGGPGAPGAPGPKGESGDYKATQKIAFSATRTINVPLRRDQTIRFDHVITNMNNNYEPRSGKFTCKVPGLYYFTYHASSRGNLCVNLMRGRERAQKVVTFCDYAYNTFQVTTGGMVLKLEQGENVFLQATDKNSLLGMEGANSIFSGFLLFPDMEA
Chain of complement protein C1q (from human serum) (P02747 29-245, chain 3 of 3): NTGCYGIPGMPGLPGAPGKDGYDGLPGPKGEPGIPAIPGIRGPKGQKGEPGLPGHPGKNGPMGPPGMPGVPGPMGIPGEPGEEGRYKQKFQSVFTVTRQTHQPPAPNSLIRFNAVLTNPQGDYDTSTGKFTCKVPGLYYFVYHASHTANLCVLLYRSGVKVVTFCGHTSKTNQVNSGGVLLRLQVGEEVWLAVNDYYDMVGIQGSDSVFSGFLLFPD

[2] = target: T1, human PD-1, full-length, expressed on cells (human, UniProt Q15116 25-288); test: cell-based or functional assay
T1 sequence (Q15116 25-288): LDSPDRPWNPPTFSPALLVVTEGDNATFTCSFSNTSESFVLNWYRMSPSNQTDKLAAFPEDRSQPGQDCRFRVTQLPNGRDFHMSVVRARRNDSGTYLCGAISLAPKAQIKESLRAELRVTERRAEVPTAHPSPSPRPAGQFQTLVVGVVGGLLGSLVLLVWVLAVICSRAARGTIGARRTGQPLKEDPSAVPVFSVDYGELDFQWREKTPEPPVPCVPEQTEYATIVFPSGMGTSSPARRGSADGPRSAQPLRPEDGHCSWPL

[3] = target: T1, human PD-1, full-length, expressed on …; test: cell-based or functional assay; remark: listed apart in the source
[4] = target: T1, human PD-1, full-length, expressed on …; test: competition flow cytometry: antibody titrated against 1 µg/mL biotinylated recombinant human PD-L2 on CHO-S cells transiently transfected with human PD-1; streptavidin-allophycocyanin; % of cells binding PD-L2
[5] = target: T1, human PD-1, full-length, expressed on …; test: flow cytometry: 1 µg/mL biotinylated recombinant human PD-L2 on CHO-S cells transiently transfected with human PD-1; streptavidin-allophycocyanin; % of cells binding PD-L2

Binder	binding result [1]	Average EC50, CD8+ T-cell expansion index in the antigen-specific proliferation assay [2]	EC50 of PD-1/PD-L1 checkpoint blockade (luminescence, cell-based PD-1/PD-L1 blockade reporter assay) [3]	IC50 (read off the curve) [4] [µg/mL]	binding result [5]
B1	no binding (tested: antibody up to 30 µg/mL; 20% human serum)	0.0124 µg/mL and 0.0837 nM	0.165 µg/mL and 1.12 nM	~0.9	–
B2	–	–	–	–	binds
